Experimental data reported in article PMC7049099 (Cell reports, 2020).

Target: vesicular stomatitis virus (VSV) large (L) protein (vesicular stomatitis virus (VSV) …, UniProt P03523 1-2109)
Test: cryo-EM structure

Sequence of vesicular stomatitis virus (VSV) large (L) protein (P03523 whole entry): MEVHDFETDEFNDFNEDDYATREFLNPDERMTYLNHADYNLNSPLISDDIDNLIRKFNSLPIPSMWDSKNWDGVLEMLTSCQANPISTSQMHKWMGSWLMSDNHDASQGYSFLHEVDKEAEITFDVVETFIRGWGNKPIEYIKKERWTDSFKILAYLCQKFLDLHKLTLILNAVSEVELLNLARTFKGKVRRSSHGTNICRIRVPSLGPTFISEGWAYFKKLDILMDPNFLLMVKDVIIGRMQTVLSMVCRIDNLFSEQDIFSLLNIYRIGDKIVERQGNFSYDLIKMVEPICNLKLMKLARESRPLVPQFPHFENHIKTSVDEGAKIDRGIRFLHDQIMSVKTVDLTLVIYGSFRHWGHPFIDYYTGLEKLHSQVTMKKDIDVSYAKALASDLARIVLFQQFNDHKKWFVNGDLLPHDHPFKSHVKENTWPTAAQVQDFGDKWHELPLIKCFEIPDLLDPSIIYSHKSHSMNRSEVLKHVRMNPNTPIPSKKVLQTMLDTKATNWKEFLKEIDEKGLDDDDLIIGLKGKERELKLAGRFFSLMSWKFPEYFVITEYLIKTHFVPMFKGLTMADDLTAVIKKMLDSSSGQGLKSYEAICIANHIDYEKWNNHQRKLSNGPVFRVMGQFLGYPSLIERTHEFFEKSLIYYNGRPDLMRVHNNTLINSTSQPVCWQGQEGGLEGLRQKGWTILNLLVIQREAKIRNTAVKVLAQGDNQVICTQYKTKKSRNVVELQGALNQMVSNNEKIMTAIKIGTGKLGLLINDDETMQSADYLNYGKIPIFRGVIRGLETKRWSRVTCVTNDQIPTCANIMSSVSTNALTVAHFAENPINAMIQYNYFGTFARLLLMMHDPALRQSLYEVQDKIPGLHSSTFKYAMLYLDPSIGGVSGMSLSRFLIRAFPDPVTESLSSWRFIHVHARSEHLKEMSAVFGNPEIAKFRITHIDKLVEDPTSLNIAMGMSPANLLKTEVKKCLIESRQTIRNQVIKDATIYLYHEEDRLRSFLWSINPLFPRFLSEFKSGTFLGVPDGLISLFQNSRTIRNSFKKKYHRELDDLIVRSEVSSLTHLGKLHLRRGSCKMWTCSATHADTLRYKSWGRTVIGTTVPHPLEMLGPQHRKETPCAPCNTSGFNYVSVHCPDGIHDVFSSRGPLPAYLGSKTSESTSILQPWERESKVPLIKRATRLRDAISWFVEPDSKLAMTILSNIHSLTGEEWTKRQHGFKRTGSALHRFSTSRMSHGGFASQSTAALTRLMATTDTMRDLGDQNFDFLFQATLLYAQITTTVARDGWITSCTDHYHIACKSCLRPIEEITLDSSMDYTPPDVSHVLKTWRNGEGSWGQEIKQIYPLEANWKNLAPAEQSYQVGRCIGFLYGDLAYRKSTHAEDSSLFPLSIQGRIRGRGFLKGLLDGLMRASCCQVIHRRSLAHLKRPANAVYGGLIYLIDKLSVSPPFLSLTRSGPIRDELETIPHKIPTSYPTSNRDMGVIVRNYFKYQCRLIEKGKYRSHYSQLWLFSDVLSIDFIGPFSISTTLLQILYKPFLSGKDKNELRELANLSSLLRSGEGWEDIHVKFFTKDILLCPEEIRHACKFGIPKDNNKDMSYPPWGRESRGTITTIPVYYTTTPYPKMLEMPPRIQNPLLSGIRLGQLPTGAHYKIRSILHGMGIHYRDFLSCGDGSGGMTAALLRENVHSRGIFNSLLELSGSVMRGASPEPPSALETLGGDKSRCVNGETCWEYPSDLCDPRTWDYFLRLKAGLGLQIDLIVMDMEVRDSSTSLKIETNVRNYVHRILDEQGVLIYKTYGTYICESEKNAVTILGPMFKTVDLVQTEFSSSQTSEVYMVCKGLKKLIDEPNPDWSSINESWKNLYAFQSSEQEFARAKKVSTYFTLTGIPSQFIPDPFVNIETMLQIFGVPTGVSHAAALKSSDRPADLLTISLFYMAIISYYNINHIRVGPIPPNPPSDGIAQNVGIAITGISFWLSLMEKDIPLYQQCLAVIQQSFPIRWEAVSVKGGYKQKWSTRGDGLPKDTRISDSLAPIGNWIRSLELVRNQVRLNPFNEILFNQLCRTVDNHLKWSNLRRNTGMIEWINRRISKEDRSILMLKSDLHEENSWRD

B1: VSV phosphoprotein (P) fragment, residues 35-106 (domain or fragment)
chain: SNYELFQEDGVEEHTKPSYFQAADDSDTESEPEIEDNQGLYAQDPEAEQVEGFIQGPLDDYADEEVDVVFTS
binding result: binds
